This series in a line: protein stability index of a GFP-peptide fusion (GPS, HEK-293T) (PSI 1-6); higher = more stable. The note with it: c terminus: a fixed tail appended.

From the supplement of paper PMC10567573 come the findings set out here.

± gives the standard deviation.
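Note: 24-mer peptide tiles fused after GFP, lentivirally expressed, FACS-sorted into six equal bins by GFP/DsRed ratio, decoded by Illumina sequencing, PSI is the read-weighted mean bin number.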

In turn, KDDKDFTGTVHRIDNTTVIYNSNI [KCNA1] displayed a protein stability index (treatment: DMSO) of 4.29 ± 0.2 and a protein stability index (treatment: MLN4924 1 uM, 8 h) of 4.37 ± 0.2.

With KDPAYFYGYVYFRQVRDKTLKRGY [DENND6A], the protein stability index by setting is: (treatment: DMSO) 2.44 ± 0.31; (treatment: MLN4924 1 uM, 8 h) 1.96 ± 0.29.

KEAFDTIQEQKVVLEENGEKNQVQ [SASS6] showed a protein stability index (treatment: DMSO) of 5.49 ± 0.34 and a protein stability index (treatment: MLN4924 1 uM, 8 h) of 5.71 ± 0.11.

In the case of KEKANSLKNEIQEVEELDNWQPAV [SPATS1], the protein stability index was found to be 5.24 ± 0.2 (treatment: DMSO) and 5.25 ± 0.27 (treatment: MLN4924 1 uM, 8 h).

KGTSPSSKYVKLNVGGALYYTTMQ [KCTD10]: the protein stability index is, setting by setting: (treatment: DMSO) 2.28 ± 0.091; (treatment: MLN4924 1 uM, 8 h) 2.2 ± 0.14.

Turning to KHYRLQFYMFAWTHVTLLITVTQS [CDS1], the protein stability index was determined as 2.93 ± 0.18 (treatment: DMSO) and 3.16 ± 0.16 (treatment: MLN4924 1 uM, 8 h).

Consider KIQNHGHRVLQRLEQRRQQASERE [FCHSD1], for which the protein stability index is, setting by setting: (treatment: DMSO) 4.28 ± 0.28; (treatment: MLN4924 1 uM, 8 h) 4.51 ± 0.075.

With KIREQNLQDIKTAGPQSQVLCGVV [ADD1], the protein stability index runs as follows: (treatment: DMSO) 3.15 ± 0.43; (treatment: MLN4924 1 uM, 8 h) 3.37 ± 0.24.

For KKHKNSQLDKNSEVYQEVQAMFDT [FAM98B], the protein stability index runs as follows: (treatment: DMSO) 4.31 ± 0.39; (treatment: MLN4924 1 uM, 8 h) 4.27 ± 0.35.

As for KKKSVAMHTNYLSACSFTNSDMQI [GNB5], the protein stability index reads like this: (treatment: DMSO) 2.8 ± 0.12; (treatment: MLN4924 1 uM, 8 h) 2.8 ± 0.14.

On to KKLRLNGGRNPYEGRVEVLVERNG [LOXL2], for which the protein stability index (treatment: DMSO) is 3.05 ± 0.13 and the protein stability index (treatment: MLN4924 1 uM, 8 h) was found to be 4.01 ± 0.18.

As to KKNSSPPLSLYGQLLWREFFYTAA [CRY1], the protein stability index runs as follows: (treatment: DMSO) 2.42 ± 0.46; (treatment: MLN4924 1 uM, 8 h) 2.67 ± 0.63.

Take KKRTEQEETIASLQMEVCRLKKEE [CEP70]: the protein stability index was 5.22 ± 0.2 (treatment: DMSO) and 5.19 ± 0.38 (treatment: MLN4924 1 uM, 8 h).

With KLDLWSFLDIPRSRLVKYPLLLKE [NET1], the protein stability index by setting is: (treatment: DMSO) 2.21 ± 0.52; (treatment: MLN4924 1 uM, 8 h) 1.94 ± 0.47.

On to KLKNTVTIQQEKLLAEKEEKLQKE [SASS6], for which the protein stability index by setting is: (treatment: DMSO) 5.1 ± 0.46; (treatment: MLN4924 1 uM, 8 h) 5.2 ± 0.31.

For the sequence KLSPLRDRLVVTECQLTHSHPACP [ZSWIM9], the protein stability index runs as follows: (treatment: DMSO) 3.56 ± 0.38; (treatment: MLN4924 1 uM, 8 h) 3.55 ± 0.27.

KLVHFLLLKYRAREPVTKAEMLGS [MAGEA6]: the protein stability index reads like this: (treatment: DMSO) 2.81 ± 0.48; (treatment: MLN4924 1 uM, 8 h) 2.78 ± 1.3.

As for KLWDPVDGSVVRDFEHRPKAPVVE [WDR88], the protein stability index reads like this: (treatment: DMSO) 4.08 ± 0.23; (treatment: MLN4924 1 uM, 8 h) 4.23 ± 0.2.

Consider KLWNPRNFKAHVSPHEMLQAVVLC [USP39], for which the protein stability index runs as follows: (treatment: DMSO) 2.63 ± 0.57; (treatment: MLN4924 1 uM, 8 h) 2.88 ± 0.47.

Regarding KMDFKTNILLKNLVTIARKASLWQ [TRIM43], the protein stability index is, setting by setting: (treatment: DMSO) 2.7 ± 0.49; (treatment: MLN4924 1 uM, 8 h) 2.62 ± 0.92.

Consider KMIMDTAGNDPYCFVEFHEHRHAA [TIA1], for which the protein stability index is, setting by setting: (treatment: DMSO) 3.28 ± 0.17; (treatment: MLN4924 1 uM, 8 h) 3.26 ± 0.29.

KMTPVKNYQAHQSRVTMILFVLEL [WDFY2]: the protein stability index is 3.19 ± 0.39 (treatment: DMSO) and 2.88 ± 0.5 (treatment: MLN4924 1 uM, 8 h).

For the sequence KPILLQRMEGSQEVVNMAVIVPKE [WDFY2], the protein stability index (treatment: DMSO) worked out at 3.7 ± 0.09 and the protein stability index (treatment: MLN4924 1 uM, 8 h) is 3.54 ± 0.4.

In the case of KPQAPQKLDPTLSSCFFIESCGAQ, the protein stability index was found to be 3.35 ± 0.28 (treatment: DMSO) and 3.15 ± 0.21 (treatment: MLN4924 1 uM, 8 h).

With KPYECNECGKAFSQSSYLSQHRRI [ZNF232], the protein stability index was determined as 2.32 ± 0.073 (treatment: DMSO) and 2.44 ± 0.32 (treatment: MLN4924 1 uM, 8 h).

As for KQCIVAHPVNPPYYIPLVELVPHP [CRYL1], the protein stability index runs as follows: (treatment: DMSO) 2.33 ± 0.17; (treatment: MLN4924 1 uM, 8 h) 2.47 ± 0.32.

As to KQEENDVVEKLNLFLDLLQSYKDL [SNX8], the protein stability index reads like this: (treatment: DMSO) 1.95 ± 0.29; (treatment: MLN4924 1 uM, 8 h) 2.12 ± 0.31.

For the sequence KQILDGVHYLHSKRIAHFDLKPEN [DAPK3], the protein stability index was found to be 2.91 ± 0.18 (treatment: DMSO) and 3.19 ± 0.26 (treatment: MLN4924 1 uM, 8 h).

For KQLLSNKELILDKVYTHPKWNTQT [ZC2HC1C], the protein stability index (treatment: DMSO) worked out at 2.79 ± 0.14 and the protein stability index (treatment: MLN4924 1 uM, 8 h) is 3.15 ± 0.23.

Turning to KQVCKIAALHGLEETKKLANKYLV [KLHL14], the protein stability index reads like this: (treatment: DMSO) 2.03 ± 0.31; (treatment: MLN4924 1 uM, 8 h) 2.35 ± 0.32.

Consider KQYQQRAFGWFRCSSCQRSWASAQ [RTP4], for which the protein stability index is, setting by setting: (treatment: DMSO) 2.39 ± 0.34; (treatment: MLN4924 1 uM, 8 h) 2.25 ± 0.54.

Regarding KRIEAEEAIKGLNGQKPLGAAEPI [ELAVL3], the protein stability index is, setting by setting: (treatment: DMSO) 4.77 ± 0.16; (treatment: MLN4924 1 uM, 8 h) 4.951 ± 0.042.

In the case of KRKEEECSTTDHPYKKPYMETSPS [TBX5], the protein stability index reads like this: (treatment: DMSO) 5.09 ± 0.22; (treatment: MLN4924 1 uM, 8 h) 5.02 ± 0.18.

As to KSNNRLKSLSIQYLELDRLVWRNS [FBXO39], the protein stability index is 2.38 ± 0.18 (treatment: DMSO) and 2.4 ± 0.3 (treatment: MLN4924 1 uM, 8 h).

KSPDNEDSGDSKDIRLTLMEEVLL [GOLPH3L]: the protein stability index runs as follows: (treatment: DMSO) 3.82 ± 0.3; (treatment: MLN4924 1 uM, 8 h) 4.07 ± 0.19.

In turn, KSQTACLPFVLAAAVSRKKKRRMG [EHMT1] displayed a protein stability index (treatment: DMSO) of 3.38 ± 0.31 and a protein stability index (treatment: MLN4924 1 uM, 8 h) of 3.61 ± 0.3.
